Experimental data taken from patent publication US20250049939A1, “NOVEL FLT3 ANTIBODIES AND ANTIBODY-DRUG-CONJUGATES BASED THEREON, THERAPEUTIC METHODS AND USES THEREOF IN COMBINATION WITH TYROSINE KINASE INHIBITORS” (TUBULIS GmbH, priority 2021, published 2025).

T1: human wildtype FLT3 (hFLT3 wt) (Homo sapiens, UniProt P36888)
T1 construct: expressed in transfected cells; host or cells: Ba/F3 cells, retrovirally transduced with MSCV-IRES-YFP (pMIY) vector
T1 sequence (P36888 27-993): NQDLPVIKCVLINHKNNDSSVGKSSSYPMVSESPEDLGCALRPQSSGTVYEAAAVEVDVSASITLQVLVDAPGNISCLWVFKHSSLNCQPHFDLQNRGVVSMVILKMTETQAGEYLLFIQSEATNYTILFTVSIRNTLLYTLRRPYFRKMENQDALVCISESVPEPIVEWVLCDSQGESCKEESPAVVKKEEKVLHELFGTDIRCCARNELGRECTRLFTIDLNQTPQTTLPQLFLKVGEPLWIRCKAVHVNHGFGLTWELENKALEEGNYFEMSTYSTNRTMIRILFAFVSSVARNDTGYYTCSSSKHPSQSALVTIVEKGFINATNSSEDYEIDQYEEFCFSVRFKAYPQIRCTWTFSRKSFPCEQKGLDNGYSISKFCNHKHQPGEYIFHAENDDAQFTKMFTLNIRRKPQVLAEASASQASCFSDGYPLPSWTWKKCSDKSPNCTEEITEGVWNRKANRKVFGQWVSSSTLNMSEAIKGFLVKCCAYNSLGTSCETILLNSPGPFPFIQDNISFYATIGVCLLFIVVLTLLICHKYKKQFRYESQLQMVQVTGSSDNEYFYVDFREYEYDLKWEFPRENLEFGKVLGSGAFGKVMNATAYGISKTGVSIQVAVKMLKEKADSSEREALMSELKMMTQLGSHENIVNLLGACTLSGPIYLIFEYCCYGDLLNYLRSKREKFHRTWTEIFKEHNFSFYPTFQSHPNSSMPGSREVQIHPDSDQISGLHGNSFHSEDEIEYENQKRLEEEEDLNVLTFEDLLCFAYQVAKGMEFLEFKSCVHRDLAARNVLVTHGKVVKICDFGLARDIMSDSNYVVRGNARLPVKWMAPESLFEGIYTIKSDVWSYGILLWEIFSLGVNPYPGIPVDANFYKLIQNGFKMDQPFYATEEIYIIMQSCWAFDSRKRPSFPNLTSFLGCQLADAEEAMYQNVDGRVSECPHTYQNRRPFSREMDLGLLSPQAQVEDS


Key:
[1] = target: T1, human wildtype FLT3 (hFLT3 wt); test: Cell surface binding to Ba/F3 hFLT3 wt, flow cytometry
Procedure: For antibody binding studies, cells were stained on ice with primary mouse, rat or human anti-FLT3 antibodies (in house) and secondary antibody Goat F(ab′)2 Anti-Human Ig-PE (2012-09), Goat Anti-Mouse IgG (H+L)-PE (1032-09) or Goat Anti-Rat IgG (H+L)-PE (3052-09) purchased from Southern Biotech. For internalization experiments, cells incubated with anti-FLT3 antibodies were washed and incubated for 30 min at 4° C. or 37° C. followed by staining with secondary antibody.
For FLT3 expression analysis, cells were stained on ice with primary mouse anti-FLT3-AF647 antibodies for 30 min. For antibody binding studies, cells were stained on ice with chimeric (20D9) or humanized anti-FLT3 antibodies (in house) or IgG1 control with or without Leu234Ala/Leu235Ala (LALA)-mutation in the Fc region and secondary antibody goat F(ab′)2 Anti-Human IgG-AF647 (2042-31) purchased from Southern Biotech for 30 min, respectively. Binding and expression were subsequently measured at the flow cytometer (BD FACSCanto II) and the results were evaluated with FlowJo version 10.8.1.

[2] = tested on: FLT3 positive human cell lines; test: Cytotoxicity in leukemia and lymphoma cell lines, 96 h resazurin; format: cell-based; settings: FLT3 positive and negative cell lines
Description: (A) Correlation of MFI of CD64 cell surface expression and MFI of FLT3 cell surface expression of myeloid human cell lines measure in flow cytometry. Expression data presented in Supplementary FIGS. 4A and B. Black line indicates simple linear regression with error interval. r=Pearson correlation coefficient; r^2=Coefficient of determination; p=p value from two tailed test with confidence interval of 95%. MFI=mean fluorescence intensity. (B,C,E,F) Assessment of cytotoxicity of ADCs in different human cell lines. Viability was determined after 96h treatment with different concentrations of ADCs by resazurin fluorescence and normalized to untreated control. Dashed line indicates 100 ng/ml drug concentration. Mean±s.d. of n=3 biological replicates. […] Black line indicates simple linear regression with error interval. (E) Treatment of FLT3 positive human cell lines with IgG1-ADC.

| Binding to Ba/F3-FLT3 cell line by flow cytometry [1] | Molecule | Effect of unconjugated antibody on cell proliferation [2] |
| --- | --- | --- |
| specifically bound | 20D9: chimeric (rat variable regions, human IgG1) anti-FLT3 monoclonal antibody; VH SEQ ID NO: 5, VL SEQ ID NO: 6 (antibody, V domains shown, Clone 20D9, heavy chain variable region without a signal seqeunce; Clone 20D9, light chain variable region without a signal seqeunce) VH: DVMLVESGGGLVQPGRSLKLSCVASGFTFNNYWMTWIRQAPGKGLEWIASITKTGGGTYYPDSVKGRFTISRDNAKSTLYLQMNSLRSEDTATYYCTTLQQLGVMDAWGQGASVTVSSA VL: DVQMTQSPSVLSASVGDRITLNCKASQNINKELNWYQQKLGEAPKLLIYNTNNLQTGIPSRFSGSGSGTDYTLTISSLQPEDVATYFCFQHKSWPLTFGSGTKLEIKR | did not impair cell proliferation |
| specifically bound | 4B12: chimeric anti-FLT3 antibody from rat; VH SEQ ID NO: 9, VL SEQ ID NO: 10 (antibody, V domains shown, Clone 4B12, heavy chain variable region without a signal sequence; Clone 4B12, light chain variable region without a signal seqeunce) VH: QVQLQQSGPGLVQPSQTLSLTCTVSGFSLTSYNVNWVRQPPGKGLEWIGAMWRGGGTDYNPALKSRLSISRDTSKSQVFLKMNRLQTEDTAIYFCTRGFGDYWGQGVMVTVSSA VL: DIQMTQTPLSLSVAIGQSASISCKSSQSLKYSDGKTYLNWVFQSPGQSPKRLIYQVSKLDSGVPDRFSGTGSETDFTLKISRVEAEDLGVYYCCQGSYSPSTFGAGTKLELKR | – |
